# Laboratory results: patent US20100209956
# T1: Lys-plasminogen, P00747
# T1 chain: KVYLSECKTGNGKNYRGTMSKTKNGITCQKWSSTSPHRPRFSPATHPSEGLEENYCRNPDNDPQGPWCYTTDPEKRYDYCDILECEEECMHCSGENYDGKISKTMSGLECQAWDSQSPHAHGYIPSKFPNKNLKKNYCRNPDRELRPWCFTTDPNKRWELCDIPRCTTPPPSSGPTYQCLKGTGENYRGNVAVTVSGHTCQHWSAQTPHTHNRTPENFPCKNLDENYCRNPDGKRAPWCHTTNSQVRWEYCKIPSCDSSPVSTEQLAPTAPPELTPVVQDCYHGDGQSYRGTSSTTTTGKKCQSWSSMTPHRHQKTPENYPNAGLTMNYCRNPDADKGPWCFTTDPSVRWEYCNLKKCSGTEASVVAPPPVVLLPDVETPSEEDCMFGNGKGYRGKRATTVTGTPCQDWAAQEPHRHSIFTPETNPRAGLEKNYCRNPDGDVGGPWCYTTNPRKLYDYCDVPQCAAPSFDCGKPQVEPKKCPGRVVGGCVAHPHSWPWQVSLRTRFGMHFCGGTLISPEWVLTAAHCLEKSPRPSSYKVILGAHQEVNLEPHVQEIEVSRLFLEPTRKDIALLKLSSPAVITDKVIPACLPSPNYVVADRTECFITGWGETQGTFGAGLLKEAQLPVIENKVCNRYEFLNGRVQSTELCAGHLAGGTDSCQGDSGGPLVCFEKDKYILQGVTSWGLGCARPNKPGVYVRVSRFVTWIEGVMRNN
# B1: soluble form of hepsin encompassing the entire extracellular domain (Arg45-Leu417) and a C-terminal His8 tag (protein)
# chain 1: RSDQEPLYPVQVSSADARLMVFDKTEGTWRLLCSSRSNARVAGLSCEEMGFLRALTHSELDVRTAGANGTSGFFCVDEGRLPHTQRLLEVISVCDCPRGRFLAAICQDCGRRKLPVDR
# chain 2: not shown
# B2: tissue-type plasminogen activator (t-PA) (protein)
# chain: SYQVICRDEKTQMIYQQHQSWLRPVLRSNRVEYCWCNSGRAQCHSVPVKSCSEPRCFNGGTCQQALYFSDFVCQCPEGFAGKCCEIDTRATCYEDQGISYRGTWSTAESGAECTNWNSSALAQKPYSGRRPDAIRLGLGNHNYCRNPDRDSKPWCYVFKAGKYSSEFCSTPACSEGNSDCYFGNGSAYRGTHSLTESGASCLPWNSMILIGKVYTAQNPSAQALGLGKHNYCRNPDGDAKPWCHVLKNRRLTWEYCDVPSCSTCGLRQYSQPQFRIKGGLFADIASHPWQAAIFAKHRRSPGERFLCGGILISSCWILSAAHCFQERFPPHHLTVILGRTYRVVPGEEEQKFEVEKYIVHKEFDDDTYDNDIALLQLKSDSSRCAQESSVVRTVCLPPADLQLPDWTECELSGYGKHEALSPFYSERLKEAHVRLYPSSRCTSQHLLNRTVTDNMLCAGDTRSGGPQANLHDACQGDSGGPLVCLNDGRMTLVGIISWGLGCGQKDVPGVYTKVTNYLDWIRDNMRP
# Key:
# [1] = molecular target: pro-HGF (single-chain hepatocyte growth factor), P14210
# Chain of pro-HGF (single-chain hepatocyte growth factor), P14210 (P14210 32-728): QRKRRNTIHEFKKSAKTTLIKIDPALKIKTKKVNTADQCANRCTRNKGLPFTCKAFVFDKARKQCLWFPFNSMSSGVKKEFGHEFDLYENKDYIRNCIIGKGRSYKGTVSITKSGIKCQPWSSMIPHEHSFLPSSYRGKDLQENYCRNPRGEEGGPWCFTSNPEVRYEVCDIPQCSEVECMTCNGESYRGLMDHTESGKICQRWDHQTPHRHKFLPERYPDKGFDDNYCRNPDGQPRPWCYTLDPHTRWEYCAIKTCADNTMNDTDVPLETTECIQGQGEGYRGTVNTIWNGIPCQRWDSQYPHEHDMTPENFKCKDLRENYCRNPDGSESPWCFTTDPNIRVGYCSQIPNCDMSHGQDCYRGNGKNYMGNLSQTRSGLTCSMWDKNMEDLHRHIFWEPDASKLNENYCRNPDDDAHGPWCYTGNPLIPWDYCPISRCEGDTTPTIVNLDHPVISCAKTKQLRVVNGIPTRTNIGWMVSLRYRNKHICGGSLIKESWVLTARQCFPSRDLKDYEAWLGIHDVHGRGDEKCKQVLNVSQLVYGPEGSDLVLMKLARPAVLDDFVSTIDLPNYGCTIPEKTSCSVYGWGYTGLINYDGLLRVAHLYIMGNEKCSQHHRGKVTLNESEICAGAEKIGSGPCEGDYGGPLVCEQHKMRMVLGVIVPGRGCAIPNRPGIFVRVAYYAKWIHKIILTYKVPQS
# Lys-plasminogen, P00747 = molecular target: T1, Lys-plasminogen, P00747
protein,measurement,setting,value
B1,"enzyme concentration achieving complete conversion of 125I-labelled pro-HGF into two-chain HGF (4 h, 37° C., SDS-PAGE)",[1],both enzymes achieving complete conversion of pro-HGF at a concentration of 4-13 nM
VQLSPDLLATLPEPASPGRQACGRRHKKRTFLRPR [HGFA (hepatocyte growth factor activator) comprising residues Val373-Arg407],"enzyme concentration achieving complete conversion of 125I-labelled pro-HGF into two-chain HGF (4 h, 37° C., SDS-PAGE)",[1],both enzymes achieving complete conversion of pro-HGF at a concentration of 4-13 nM
B2,"percent of plasminogen zymogen cleaved after 0.5 h (40 nM t-PA, SDS-PAGE)","Lys-plasminogen, P00747",t-PA efficiently processed plasminogen with about 50% of zymogen already cleaved after 0.5 h
